Results as given in patent US20240425593A1 (SICHUAN KELUN BIOTECH BIOPHARMACEUTICAL, published 2024).
Where two headings read alike, the source gives them in different places.

T1: monkey PD-1-hFc (monkey)
T1 construct: Extracellular domain of monkey PD-1 fused to an hFc tag, made in house; not shown: The hFc tag and any linker
T1 chain: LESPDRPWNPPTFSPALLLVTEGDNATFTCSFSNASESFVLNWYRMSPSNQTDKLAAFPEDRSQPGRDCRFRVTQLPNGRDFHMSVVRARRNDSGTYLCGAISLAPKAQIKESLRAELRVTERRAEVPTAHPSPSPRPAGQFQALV

T2: human ICOS (human, UniProt Q9Y6W8 21-140, limits assumed)
T2 construct: Bought
T2 sequence (looked up): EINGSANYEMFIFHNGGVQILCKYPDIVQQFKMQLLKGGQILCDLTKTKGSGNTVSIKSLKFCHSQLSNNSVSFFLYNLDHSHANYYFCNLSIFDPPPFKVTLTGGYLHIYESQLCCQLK


Columns and labels:
[1] = molecular target: T3, full-length human PD-1 on CHO-hPD-1 cells (human, UniProt Q15116 25-288); experiment: competitive FACS on CHO-hPD-1 cells, competitor PD-L1-mFc-Bio
T3 construct: whole, on cells; also called PD-1 on the cell membrane surface of CHO-hPD-1
Source text: (§1) The data were imported into Graphprism to calculate IC₅₀ values.

[2] = molecular target: T1, monkey PD-1-hFc; experiment: ELISA, coated monkey PD-1-hFc
Description: (§2) The specific experimental steps were as follows: human PD-1-hFc and monkey PD-1-hFc antigens were diluted to 1 μg/mL with CBS solution, then coated on a 96-well ELISA plate (purchased from Guangzhou Jiete Bio) at 4° C. overnight. […] After washing, a goat anti-human secondary antibody (FC) labeled with horseradish peroxidase diluted in phosphate buffer (PBS) containing 2% BSA in a ratio of 1:15000 was added, followed by incubating at 37° C. for 1 hour. After washing, the TMB chromogen solution was used for developing, and the absorbance value was read using a microplate reader at 450 nm, and the data were imported into Graphprism to calculate EC₅₀ values.

[3] = molecular target: T3, full-length human PD-1 on CHO-hPD-1 …; experiment: competitive flow cytometry on CHO-hPD-1 cells; blocked ligand PD-L1 (PD-L1-mFc-Bio)
Source text: as §1

[4] = molecular target: T4, human BTLA-his (human, UniProt Q7Z6A9 31-157, limits assumed); experiment: ELISA on coated human BTLA-his, HRP goat anti-human IgG detection
T4 construct: Bought; not shown: His tag
Description: (§3) After washing, a goat anti-human IgG secondary antibody labeled with horseradish peroxidase diluted in phosphate buffer (PBS) containing 2% BSA in a ratio of 1:15000 was added, followed by incubating at 37° C. for 1 hour. After washing, the TMB chromogen solution was used for developing, and the absorbance value was read using a microplate reader at 450 nm. The data were imported into Graphprism to calculate EC₅₀ values.

[5] = molecular target: T5, human PD-1-ECD-mFc (human; mouse, UniProt Q15116 25-170); experiment: ELISA, coated human PD-1-mFc
T5 construct: extracellular domain; Made in HEK293F cells; also called human PD-1-mFc; PD-1-mFc; not shown: mouse Fc (mFc) amino acids, AB097847.1

[6] = molecular target: T6, FcRn protein (UniProt P55899 24-297; P61769 21-119); experiment: BLI (Octet ForteBio), FcRn on SA biosensor, antibody in PBST pH6.0
T6 construct: Immobilised on an SA biosensor
Source text: The antibody Fc can bind to FcRn so that it cannot be easily cleared in vivo, thus prolonging the half-life in vivo.

[7] = molecular target: T2, human ICOS; experiment: ELISA, coated antigen 1 µg/mL
Description: as §3

[8] = molecular target: T3, full-length human PD-1 on CHO-hPD-1 …; experiment: flow cytometry, FITC-labelled antibody on CHO-hPD-1 cells
[9] = molecular target: T7, human PD-1-His (human, UniProt Q15116 25-170); experiment: BLI (Octet ForteBio), antibody on ProA biosensor, PD-1-His in solution
T7 construct: extracellular domain; not shown: His tag

[10] = molecular target: PD-1 on Jurkat-PD-1-NFAT cells (UniProt Q15116 25-288, limits assumed); experiment: cell-based or functional assay
[11] = molecular target: T8, human PD-L1-his (human, UniProt Q9NZQ7 19-239, limits assumed); experiment: ELISA on coated human PD-L1-his, HRP goat anti-human IgG detection
T8 construct: Bought; not shown: His tag
Description: as §3

[12] = molecular target: T9, CD64 protein (UniProt P12314 16-288, limits assumed); experiment: BLI (Octet ForteBio), CD64 immobilised on an SA biosensor, antibody in solution
T9 construct: also called FcγRI

[13] = molecular target: T3, full-length human PD-1 on CHO-hPD-1 …; experiment: flow cytometry on CHO-hPD-1 cells with FITC-labeled antibody
[14] = molecular target: T9, CD64 protein; experiment: BLI (Octet ForteBio), CD64 immobilised on an SA biosensor, antibody in solution; remark: listed apart in the source
[15] = molecular target: T10, human PD-1-hFc (human, UniProt Q15116 25-170); experiment: ELISA, coated human PD-1-hFc
T10 construct: extracellular domain; Extracellular domain of human PD-1 fused to an hFc tag, made in house; not shown: hFc tag
Description: (§4) In order to verify the binding affinity of murine anti-PD-1 antibody to human PD-1-hFc and monkey PD-1-hFc, ELISA was used. The specific experimental steps are as follows: human PD-1-hFc and monkey PD-1-hFc were diluted to 1 μg/mL with CBS solution, and then coated on a 96-well ELISA plate (purchased from Guangzhou Jiete Bio) at 4° C. overnight. […] After washing, a goat anti-mouse secondary antibody (FC) labeled with horseradish peroxidase diluted in phosphate buffer (PBS) containing 2% BSA in a ratio of 1:15000 was added, followed by incubating at 37° C. for 1 hour. After washing, the TMB chromogen solution was used for developing, and the absorbance value was read using a microplate reader at 450 nm. The data were imported into Graphprism to calculate the EC₅₀ value.

[16] = molecular target: T3, full-length human PD-1 on CHO-hPD-1 …; experiment: flow cytometry on CHO-hPD-1 cells
Source text: (§5) In order to verify the binding of anti-human PD-1 murine antibody to PD-1 on the cell membrane surface, FACS technology was used to detect the affinity between murine antibodies and CHO-hPD-1 cells.

[17] = molecular target: T10, human PD-1-hFc; experiment: competitive ELISA, coated human PD-1-hFc, competitor biotinylated PD-L1-mFc
Description: as §2, with “human” for “human PD-1-hFc and monkey”, “streptavidin” for “a goat anti-human secondary antibody (FC)”, “room temperature” for “37° C.”, “the IC₅₀ value.” for “EC₅₀ values.”

[18] = molecular target: T3, full-length human PD-1 on CHO-hPD-1 …; experiment: flow cytometry on CHO-hPD-1 cells, FITC anti-mouse IgG secondary antibody
Source text: as §5

[19] = molecular target: T1, monkey PD-1-hFc; experiment: ELISA, coated monkey PD-1-hFc
Description: as §4

IC50 [1] [ng/mL]	EC50 [2] [nM]	IC50 (read off the curve) [3] [ng/mL]	binding result [4]	EC50 [5] [nM]	Kd [6] [nM]	koff [6] [s⁻¹]	kon [6] [M⁻¹ s⁻¹]	EC50 [8] [nM]	Kd [9] [nM]	koff [9] [s⁻¹]	kon [9] [M⁻¹ s⁻¹]	EC50 by the PD-1/PD-L1 luciferase reporter system [10] [nM]	binding result [11]	EC50 (read off the curve) [13] [ng/mL]	EC50 [15] [nM]	EC50 [16] [nM]	IC50 [17] [nM]	EC50 [19] [nM]	Binder	binding result [7]	other results
1.32	0.25	~200	no binding (tested: 10 ug/mL)	0.104	5.33	0.00725	1.36e+06	0.093	1.17	0.00023	384000	3.48	no binding (tested: 10 ug/mL)	~10					91D5-HZ2-IgG1-1D (antibody, also called IgG1-1D mutant anti-PD-1 humanized antibody) heavy: EVQLVQSGAEVKKPGASVKVSCKASGYTFTDYYMNWVREAPGQGLEWMGEINPKYGDTTYNQKFKDRATLTVDKSTSTAYMELSSLRSDDTAVYYCAKGIRLFDSWGQGTLVTVSSASTKGPSVFPLAPSSKSTSGGTAALGCLVKDYFPEPVTVSWNSGALTSGVHTFPAVLQSSGLYSLSSVVTVPSSSLGTQTYICNVNHKPSNTKVDKRVEPKSCDKTHTCPPCPAPEAAGGPSVFLFPPKPKDTLMISRTPEVTCVVVAVSHEDPEVKFNWYVDGVEVHNAKTKPREEQYNSTYRVVSVLTVLHQDWLNGKEYKCKVSNKALPAPIEKTISKAKGQPREPQVYTLPPSREEMTKNQVSLTCLVKGFYPSDIAVEWESNGQPENNYKTTPPVLDSDGSFFLYSKLTVDKSRWQQGNVFSCSVMHEALHAHYTQKSLSLSPGK light: DIQLTQSPSSLSASVGDRVTITCRPSGNVHNYFAWYQQKPGKSPKLLVYNAKTLAEGVPSRFSGSGSGTDYTLTISSLQPEDFATYYCHHYYTAPFTFGGGTKVEIKRTVAAPSVFIFPPSDEQLKSGTASVVCLLNNFYPREAKVQWKVDNALQSGNSQESVTEQDSKDSTYSLSSTLTLSKADYEKHKVYACEVTHQGLSSPVTKSFNRGEC	no binding (tested: 10 µg/mL and 1 µg/mL)	binding result [12]: no binding
0.818	0.309	~100	no binding (tested: 10 ug/mL)	0.121	7.89	0.00746	946000	0.078	1.32	0.000306	333000	2.81	no binding (tested: 10 ug/mL)	~10					35E6-HZ1-IgG1-1D (antibody, also called IgG1-1D mutant anti-PD-1 humanized antibody) heavy: QVQLQESGPGLVKPSETLSLTCTVSGYSITSDYWSWIRQPPGKGLEWIGYINYDGDNNYNPSLKSRVTISRDTSKNQFSLKLSSVTAADTAVYYCARGGFDYWGQGTLVTVSSASTKGPSVFPLAPSSKSTSGGTAALGCLVKDYFPEPVTVSWNSGALTSGVHTFPAVLQSSGLYSLSSVVTVPSSSLGTQTYICNVNHKPSNTKVDKRVEPKSCDKTHTCPPCPAPEAAGGPSVFLFPPKPKDTLMISRTPEVTCVVVAVSHEDPEVKFNWYVDGVEVHNAKTKPREEQYNSTYRVVSVLTVLHQDWLNGKEYKCKVSNKALPAPIEKTISKAKGQPREPQVYTLPPSREEMTKNQVSLTCLVKGFYPSDIAVEWESNGQPENNYKTTPPVLDSDGSFFLYSKLTVDKSRWQQGNVFSCSVMHEALHAHYTQKSLSLSPGK light: EIVLTQSPATLSLSPGERATLSCRASESVEYYGTNLMQWYQQKPGQPPRLLIYFASNVASGIPARFSGSGSGTDFTLTISSLEPEDFAVYFCQQSKKVPSTFGQGTKVEIKRTVAAPSVFIFPPSDEQLKSGTASVVCLLNNFYPREAKVQWKVDNALQSGNSQESVTEQDSKDSTYSLSSTLTLSKADYEKHKVYACEVTHQGLSSPVTKSFNRGEC	no binding (tested: 10 µg/mL and 1 µg/mL)	binding result [14]: no binding
															0.0513	6.62	4.5	0.0595	murine antibody 42G1 (antibody, V domains shown, Murine antibody from a hybridoma; also called murine PD-1 antibody 42G1) VH: QVQLKESGAELAKPGASVKMSCEASGYALTSYWMHWVKQGPGQGLEWIGYIHPSTGYTEYNQIFEDKATLSADKSSNTAYMQLTSLTSDDSAVYYCARGAGPYYFDYWGQGTTLTVSS VL: DIQLTQSPSSLAVSAGEKVIMSCKSSQSLLNSGTRKNYLAWYQQKPGQSPKLLIFWASTRESGVPDRFTGSGSGTDFTLTISSFQAEDLAVYYCKQSYDLITFGPGTKLEIK		EC50 (read off the curve) [18]: ~7 nM
															0.0355	3.12	2.93	0.0344	murine antibody 29C6 (antibody, V domains shown, Murine antibody from a hybridoma; also called murine PD-1 antibody 29C6) VH: QVQLEESGPELVKPGASVKISCKTSGYTFTEYTIYWVKQSHGKSLEWIGGINPKNGATLYNQKFKVKATLTVDKSSSTAYMELRSLTSEDSAVYYCVRDYHGNSHDSMDYWGQGTSVTVSS VL: QIVLTQSPAIMSASPGEKVTITCSASSSVSYMHWFRQKPGTSPKLWIYYTSNLASGVPAHFSGSGSGTSYSLTISRMEAEDAATYYCQQRSDYPPTFGGGTKLEIK		EC50 (read off the curve) [18]: ~3 nM
															0.044		4.25	0.0685	murine antibody 91D5 (antibody, V domains shown, Murine antibody from a hybridoma) VH: EVQLQQSGPELVKPGASVKISCRASGYTFTDYYMNWVKESHGKSLEWIGEINPKYGDTTYNQKFKDKATLTVDKSSSTASVELRSLTSEDSAVYYCAKGIRLFDSWGQGTTVTVSS VL: DIQLTQSPASLSASVGETVTITCRPSGNVHNYFAWYQQKQGKSPQLLVYNAKTLAEGVPSRFSGSGSGTQYSLKINSLQPEDFGTYYCHHYYTAPFTFGSGTKLEIK		
